Test [1] deals with T1, human ROR1 extracellular domain-Fc fusion (human, UniProt Q01973 30-406).
T1 construct: extracellular domain; also called hROR1; ROR1-hFc
In words: SPR, hROR1 ECD-Fc on chip.

Test [2] has as its target T2, cynomolgus serum albumin (cynomolgus).
T2 construct: also called CSA; Cyano
In words: SPR, CSA on chip, pH 7.4.

The target of test [3] is T1, human ROR1 extracellular domain-Fc …. In words: SPR. In general terms: Surface plasmon resonance follows binding to a sensor surface in real time, without labels.
The target is the same in test [4]. Briefly: SPR. This is another data set of the same source.

T2 sequence (A2V9Z4 25-608): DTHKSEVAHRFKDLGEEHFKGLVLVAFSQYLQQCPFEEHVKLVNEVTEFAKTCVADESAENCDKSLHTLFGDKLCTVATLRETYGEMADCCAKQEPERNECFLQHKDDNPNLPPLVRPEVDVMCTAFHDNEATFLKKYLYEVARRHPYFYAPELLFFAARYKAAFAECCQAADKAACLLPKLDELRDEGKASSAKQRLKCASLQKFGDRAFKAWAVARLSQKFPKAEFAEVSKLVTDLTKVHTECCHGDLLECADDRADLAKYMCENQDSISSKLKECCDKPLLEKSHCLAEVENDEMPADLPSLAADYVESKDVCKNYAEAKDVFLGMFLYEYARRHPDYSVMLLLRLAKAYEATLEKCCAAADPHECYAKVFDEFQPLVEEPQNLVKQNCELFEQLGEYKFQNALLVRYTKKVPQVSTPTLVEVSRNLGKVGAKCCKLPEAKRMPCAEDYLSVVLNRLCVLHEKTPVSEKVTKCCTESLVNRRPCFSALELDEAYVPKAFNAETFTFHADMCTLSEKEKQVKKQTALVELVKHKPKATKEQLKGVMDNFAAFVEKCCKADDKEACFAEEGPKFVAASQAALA

B1: P3A1 V1 dimer (VNAR)
chain: TRVDQSPSSLSASVGDRVTITCVLTDTSYGLYSTSWFRKNPGTTDWERMSIGGRYVESVNKGAKSFTLTISSLQPEDFATYYCKAREARHPWLRQWYDGAGTKVEIKGGGGSGGGGSGGGGSGGGGSGGGGSTRVDQSPSSLSASVGDRVTITCVLTDTSYGLYSTSWFRKNPGTTDWERMSIGGRYVESVNKGAKSFTLTISSLQPEDFATYYCKAREARHPWLRQWYDGAGTKVEIKQASGAHHHHHHGAEFEQKLISEEDLG
notes: humanised VNAR dimer
One may read the Kd as the constant that tells how readily two partners part at equilibrium. Read a high Kd as weaker binding. A word on the koff: it is the rate constant with which the complex falls apart. A word on the kon: it is a measure of how fast the partners come together. In test [1], B1 displayed a Kd of 0.18 nM, a koff of 0.000846 s⁻¹ and a kon of 4.78e+06 M⁻¹ s⁻¹.

B2: P3A1 G2 dimer (VNAR)
chain: TRVDQSPSSLSASVGDRVTITCVLTDTSYGLYSTYWYRKNPGTTDWERMSIGGRYSESVNKGAKSFTLTISSLQPEDSATYYCRAREARHPWLRQWYDGAGTKVEIKGGGGSGGGGSGGGGSGGGGSGGGGSTRVDQSPSSLSASVGDRVTITCVLTDTSYGLYSTYWYRKNPGTTDWERMSIGGRYSESVNKGAKSFTLTISSLQPEDSATYYCRAREARHPWLRQWYDGAGTKVEIKQASGAHHHHHHGAEFEQKLISEEDLG
notes: humanised VNAR dimer
Turning to B2, in test [1], the Kd stood at 0.77 nM, the koff is 0.00119 s⁻¹ and the kon worked out at 1.88e+06 M⁻¹ s⁻¹.

B3: BA11-aminoxy (VNAR)
VNAR: TRVDQSPSSLSASVGDRVTITCVLTDTSYPLYSTYWYRKNPGSSNKEQISISGRYSESVNKGTKSFTLTISSLQPEDSATYYCRAMSTNIWTGDGAGTKVEIK
modifications: C-terminal aminoxy from dioxyamine cleavage of the intein fusion
B3 yielded a Kd in test [2] of 7.97 nM.

B4: BA11 C-terminal cysteine derivative (VNAR)
VNAR: TRVDQSPSSLSASVGDRVTITCVLTDTSYPLYSTYWYRKNPGSSNKEQISISGRYSESVNKGTKSFTLTISSLQPEDSATYYCRAMSTNIWTGDGAGTKVEIK
modifications: additional C-terminal cysteine from cysteine cleavage of the intein fusion
notes: also called BA11-cys
B4 showed a Kd in test [2] of 2.1 nM.

B5: D3 humanised ADV2 (VNAR)
VNAR: TRVDQSPSSLSASVGDRVTITCVLTDTSYGLYSTSWFRKNPGTTDWERMSIGGRYSESVNKGAKSFTLTISSLQPEDSATYYCKAQSGMAISTGSGHGYNWYDGAGTKVEIKQ
notes: also called D3 AD V2
In test [1], B5 displayed a Kd of 51.6 nM, a koff of 0.00236 s⁻¹ and a kon of 45800 M⁻¹ s⁻¹.

B6: P3A1-P3A1-S-mal-vcMMAE (VNAR)
chain: TRVDQTPRTATKETGESLTINCVLTDTSYGLYSTSWFRKNPGTTDWERMSIGGRYVESVNKGAKSFSLRIKDLTVADSATYYCKAREARHPWLRQWYDGAGTVLTVNGGGGSGGGGSGGGGSGGGGSGGGGSTRVDQTPRTATKETGESLTINCVLTDTSYGLYSTSWFRKNPGTTDWERMSIGGRYVESVNKGAKSFSLRIKDLTVADSATYYCKAREARHPWLRQWYDGAGTVLTVNQASGAHHHHHHGAEFEQKLISEEDLG
modifications: chain 1 pos 265 (C-terminal Gly, written G): carboxyl amidated with cysteamine (intein cleavage); its thiol joined by thioether to maleimide MC vc PAB MMAE
In test [3], B6 registered a Kd of 0.59 nM, a koff of 0.0026 s⁻¹ and a kon of 4.96e+06 M⁻¹ s⁻¹.

B7: P3A1-P3A1-Ox-MMAE (VNAR)
chain: TRVDQTPRTATKETGESLTINCVLTDTSYGLYSTSWFRKNPGTTDWERMSIGGRYVESVNKGAKSFSLRIKDLTVADSATYYCKAREARHPWLRQWYDGAGTVLTVNGGGGSGGGGSGGGGSGGGGSGGGGSTRVDQTPRTATKETGESLTINCVLTDTSYGLYSTSWFRKNPGTTDWERMSIGGRYVESVNKGAKSFSLRIKDLTVADSATYYCKAREARHPWLRQWYDGAGTVLTVNQASGAHHHHHHGAEFEQKLISEEDLG
modifications: chain 1 pos 265 (C-terminal Gly, written G): carboxyl derivatised with O,O'-1,3-propanediylbishydroxylamine (C-terminal aminoxy), joined by oxime to benzaldehyde PEG4 MMAE (non-cleavable)
notes: linker as for m77
In test [3], B7 registered a Kd of 0.78 nM, a koff of 0.0032 s⁻¹ and a kon of 4.2e+06 M⁻¹ s⁻¹.

B8: P3A1-P3A1-Ox-vcMMAE (VNAR)
chain: TRVDQTPRTATKETGESLTINCVLTDTSYGLYSTSWFRKNPGTTDWERMSIGGRYVESVNKGAKSFSLRIKDLTVADSATYYCKAREARHPWLRQWYDGAGTVLTVNGGGGSGGGGSGGGGSGGGGSGGGGSTRVDQTPRTATKETGESLTINCVLTDTSYGLYSTSWFRKNPGTTDWERMSIGGRYVESVNKGAKSFSLRIKDLTVADSATYYCKAREARHPWLRQWYDGAGTVLTVNQASGAHHHHHHGAEFEQKLISEEDLG
modifications: chain 1 pos 265 (C-terminal Gly, written G): carboxyl derivatised with O,O'-1,3-propanediylbishydroxylamine (C-terminal aminoxy), joined by oxime to benzaldehyde PEG2 vc PAB MMAE
notes: linker as for m77
In test [3], B8 registered a Kd of 1.43 nM, a koff of 0.00277 s⁻¹ and a kon of 2.07e+06 M⁻¹ s⁻¹.

B9: B1 G2 (loop-grafted humanised B1) (VNAR)
VNAR: TRVDQSPSSLSASVGDRVTITCVLTGANYGLASTYWYRKNPGSSNQERISISGRYSESVNKRTMSFTLTISSLQPEDSATYYCRAYPWGAGAPWLVQWYDGAGTKVEIKQ
notes: humanised VNAR
In test [1], B9 returned a Kd of 45.9 nM, a koff of 0.0079 s⁻¹ and a kon of 185000 M⁻¹ s⁻¹.

B10: B1 humanised V5 (VNAR)
VNAR: ASVDQSPSSLSASVGDRVTITCVVTGANYGLAATYWYRKNPGSSNQERISISGRYSESVNKRTMSFTLTISSLQPEDSATYYCKAYPWGAGAPWLVQWYDGAGTKVEIKQ
notes: humanised VNAR; also called B1V5
For B10, in test [1], the Kd was 0.74 nM, the koff was determined as 3.85e-05 s⁻¹ and the kon is 52000 M⁻¹ s⁻¹.

B11: B1 humanised V7 (VNAR)
VNAR: ASVDQSPSSASASVGDRLTITCVVTGANYGLAATYWYRKNPGSSNQERISISGRYSESVNKRTMSFTLTISSLQPEDSATYYCKAYPWGAGAPWLVQWYDGAGTKLEVKQ
notes: humanised VNAR; also called B1V7
In test [1], B11 returned a Kd of 0.77 nM, a koff of 5.54e-05 s⁻¹ and a kon of 77400 M⁻¹ s⁻¹.

B12: B1 G1 (loop-grafted humanised B1) (VNAR)
VNAR: TRVDQSPSSLSASVGDRVTITCVLTGANYGLASTYWYRKNPGSSNKEQISISGRYSESVNKGTKSFTLTISSLQPEDSATYYCRAYPWGAGAPWLVQWYDGAGTKVEIKQ
notes: humanised VNAR
In test [1], B12 showed a Kd of 82.8 nM, a koff of 0.0162 s⁻¹ and a kon of 220000 M⁻¹ s⁻¹.

B13: D3 humanised EL V2 (VNAR)
VNAR: ASVNQSPSSLSASVGDRVTITCVLTDTSYGLYSTSWFRKNPGTTDWERMSIGGRYVESVNKRAKSFTLTISSLQPEDFATYYCKAQSGMAISTGSGHGYNWYDGAGTKVEIK
notes: also called D3 EL V2
In test [1], B13 returned a Kd of 18.9 nM and a kon of 1.85e+06 M⁻¹ s⁻¹.

B14: D3 humanised EL V4 (VNAR)
VNAR: ASVNQSPSSLSASVGDRVTITCVLTDTSYGLYSTSWYQQKPGTTDWERMSIGGRYVESVNKRAKSFTLTISSLQPEDFATYYCKAQSGMAISTGSGHGYNWYDGAGTKVEIK
notes: also called D3 EL V4
In test [1], B14 came in with a Kd of 58.5 nM, a koff of roughly 0.0545 s⁻¹ and a kon of 1.38e+06 M⁻¹ s⁻¹.

B15: P3A1 G1 dimer (VNAR)
chain: TRVDQSPSSLSASVGDRVTITCVLTDTSYGLYSTYWYRKNPGSSNKEQISISGRYSESVNKGTKSFTLTISSLQPEDSATYYCRAREARHPWLRQWYDGAGTKVEIKGGGGSGGGGSGGGGSGGGGSGGGGSTRVDQSPSSLSASVGDRVTITCVLTDTSYGLYSTYWYRKNPGSSNKEQISISGRYSESVNKGTKSFTLTISSLQPEDSATYYCRAREARHPWLRQWYDGAGTKVEIKQASGAHHHHHHGAEFEQKLISEEDLG
notes: humanised VNAR dimer
As to B15, in test [1], binding was put at a Kd of 0.43 nM, the koff amounted to 0.00147 s⁻¹ and the kon stood at 4.3e+06 M⁻¹ s⁻¹.

B16: P3A1-[G4S]5-P3A1 homodimer with His6Myc tag (VNAR)
chain: TRVDQTPRTATKETGESLTINCVLTDTSYGLYSTSWFRKNPGTTDWERMSIGGRYVESVNKGAKSFSLRIKDLTVADSATYYCKAREARHPWLRQWYDGAGTVLTVNGGGGSGGGGSGGGGSGGGGSGGGGSTRVDQTPRTATKETGESLTINCVLTDTSYGLYSTSWFRKNPGTTDWERMSIGGRYVESVNKGAKSFSLRIKDLTVADSATYYCKAREARHPWLRQWYDGAGTVLTVNQASGAHHHHHHGAEFEQKLISEEDL
notes: genetic fusion of two VNAR domains; also called P3A1 dimer 6xHis myc; P3A1-P3A1
Turning to B16, in test [3], the Kd was 1.61 nM, the koff was 0.00296 s⁻¹ and the kon worked out at 1.86e+06 M⁻¹ s⁻¹. In addition, in test [4], the Kd was determined as 0.35 nM, the koff stood at 0.000637 s⁻¹ and the kon was determined as 2.08e+06 M⁻¹ s⁻¹.

These data come from patent US20210317204A1 (ALMAC DISCOVERY, published 2021).
